What was measured:
[1] = Substrate specificity of purified enzymes, PMS-DCIP spectrophotometric assay; type: biochemical; conditions: A′ corrected 1.5-fold (purity about 65%)
Procedure: The enzymatic activity of the AADHs herein can be determined by methods known in the art, such as by photometric analysis using a spectrophotometer. In accordance with the present invention, one unit of enzyme activity was defined as the amount of enzyme which catalyzed the reduction of 1 μmole of DCIP per minute. The extinction coefficient of DCIP at pH 8.0 was taken as 15 mM^−1. In a preferred standard assay for determining the enzyme activity of the AADHs herein, a first cuvette includes a standard reaction mixture (1.0 ml) containing 0.1 mM DCIP, 1 mM PMS, 2 to 125 mM substrate, 50 mM Tris-malate-NaOH buffer (pH 8.0), and 10 μl of the enzyme solution. A second cuvette, i.e., a reference cuvette, contains all the above components except the substrate. The reference cuvette is used to standardize the background absorbance resulting from a substrate-independent (endogenous) reaction. Preferably, a double beam spectrophotometer is used to determine the activity of the enzyme in the presence of a substrate with respect to a standard reaction mixture in the absence of the substrate.
Enzyme activities of each clone (cell free extract, soluble fraction and membrane fraction) were measured by photometric analysis. The cells of each clone were inoculated in 5 ml of MB medium in a test tube and cultivated at 30° C. for 24 hours. The resulting broth was transferred into 200 ml of fresh MB medium in 500 ml flask and the flask was shaken on the rotary flask shaker at 30° C. for 24 hours. The cells were collected by centrifugation at 6,000×g for 10 minutes and washed with 40 ml of cold buffer consisting of 50 mM Tris-HCl, pH 7.5, 5 mM MgCl2 and 0.5 mM phenylmethylsulfonyl fluoride and suspended with the same buffer to prepare cell suspension of 1 g wet cells per 5 ml. The cell suspension was subjected twice to a French press cell disruptor (1,500 kg/cm^2) and the resulting homogenate was centrifuged at 6,000×g for 10 minutes to remove cell debris. Thus obtained cell free extract (CFE) was centrifuged at 100,000×g for 60 minutes. The resulting supernatant and pellet were collected as the cytosol fraction and the membrane fraction, respectively and subjected to PMS-DCIP assay as follows. The enzyme reaction mixture (1.0 ml) contained 100 μM DCIP, 1 mM PMS, 50 mM Tris malate-NaOH buffer, pH 8.0, a substrate and the enzyme (10 μl). Substrate-dependent decreasing rate of absorbance of DCIP at 600 nm was measured at 25° C. by using a Kontron spectrophotometer UVIKON 810. […] In the A-group, there were three types, A, A′ and A″ each of which was distinguished from each other by their physical map of the DNA carried on each plasmid. B- or C-group each consisted of only one type of protein derived from one region of the chromosomal DNA.

[2] = Optimal pH, PMS-DCIP assay in buffers of various pH; type: biochemical
Procedure: The Enzymes A″ and B have a relatively wide pH range toward a lower pH, compared with the Enzymes A and A′.
The enzyme activity was assayed by the PMS-DCIP spectrophotometric assay using various pH buffers. The buffers were 50 mM Tris-malate-NaOH, pH 6.0, 6.5, 7.0, 7.5, 8.0 and 8.5; 50 mM glycine-NaOH, pH 9.0 and 9.5. The extinction coefficients of DCIP at pH 6.0, 6.5, 7.0, 7.5, 8.0, 8.5, 9.0 and 9.5 were taken as 10.8, 13.2, 14.5, 14.9, 15.0, 15.1, 15.1 and 15.1, respectively. […] The Enzymes A″ and B had relatively wide pH range toward lower pH, compared with the Enzymes A and A′.

[3] = Thermal stability, 5 minutes, residual activity by PMS-DCIP assay; type: physicochemical
Procedure: Table 4 indicates the results of thermal-stabilities of the enzymes. The enzyme (about 0.05 mg/ml) in 25 mM HEPES buffer, pH 7.5, containing 5% sucrose, 0.2 M NaCl, and 5 mM CaCl2 was incubated at temperature indicated in the table (4-60° C.) for 5 minutes, cooled in ice bath and assayed by PMS-DCIP spectrophotometric method. Remaining activity was expressed as relative activity against that obtained by 4° C. incubation.

[4] = Oxidation product of AADH clones by resting cell reaction followed by TLC analysis; type: cell-based, P. putida
From the text: Enzyme A gene was originally cloned as a cosmid clone of p24D4 which has about 25 kb insert in EcoRI site of pVK100. Then, it was further subcloned to use as an Enzyme A gene cassette. The 2.7 kb EcoRV fragment which includes ORF of Enzyme A gene with about 500 bp of non-coding regions at the both ends was excised from 3.4 kb NruI fragment, which was isolated from p24D4 in M13 mp18, and was ligated to HindIII site of pUC18 with HindIII linker ([…]). The resulting plasmid was designated pSSA202. Enzyme A gene cassette (2.7 kb HindIII fragment) was then inserted at HindIII site of pVK102 to produce pSSA102R. The plasmid pSSA102R was introduced into nalidixic acid resistant P. putida [ATCC 21812] by a conjugal mating method as described in Example 1-(1). The transconjugant of P. putida carrying pSSA102R was selected on MB agar medium containing 50 μg/ml nalidixic acid and 10 μg/ml tetracycline (MNT agar medium) and subjected to a mini-resting cell reaction. […] The reaction mixture was assayed with TLC and 2KGA was identified as the product, while no 2KGA was observed by the same resting cell reaction with the host, nalidixic acid resistant P. putida [ATCC 21812].

[5] = Products of enzyme reactions with purified enzymes, identified by TLC and/or HPLC; type: biochemical
Procedure: Products formed from a substrate in the reaction with Enzyme A, Enzyme A′, Enzyme A″ or Enzyme B were analyzed by thin layer chromatography (TLC) and/or high performance liquid chromatography (HPLC) with authentic compounds. […] Similarly to the reactivity for L-sorbosone, D-glucosone can be converted to 2KD by all of above mentioned AADHs. A group enzymes can produce 2KD from D-fructose whose possible direct product is D-glucosone. […]
Enzyme reactions with purified Enzyme A or Enzyme B and various substrates were performed as described in Example 11.

B1: Enzyme A: recombinant AADH of G. oxydans DSM No. 4025, amino acid sequence SEQ ID NO 5, plasmid p24D4/pSSA102R (protein)
chain: MKPTSLLWASAGALALLAAPAFAQVTPVTDELLANPPAGEWISYGQNQENYRHSPLTQITTENVGQLQLVWARGMQPGKVQVTPLIHDGVMYLANPGDVIQAIDAKTGDLIWEHRRQLPNIATLNSFGEPTRGMALYGTNVYFVSWDNHLVALDTATGQVTFDVDRGQGEDMVSNSSGPIVANGVIVAGSTCQYSPFGCFVSGHDSATGEELWRNYFIPRAGEEGDETWGNDYEARWMTGAWGQITYDPVTNLVHYGSTAVGPASETQRGTPGGTLYGTNTRFAVRPDTGEIVWRHQTLPRDNWDQECTFEMMVTNVDVQPSTEMEGLQSINPNAATGERRVLTGVPCKTGTMWQFDAETGEFLWARDTNYQNMIESIDENGIVTVNEDAILKELDVEYDVCPTFLGGRDWPSAALNPDSGIYFIPLNNVCYDMMAVDQEFTSMDVYNTSNVTKLPPGKDMIGRIDAIDISTGRTLWSVERAAANYSPVLSTGGGVLFNGGTDRYFRALSQETGETLWQTRLATVASGQAISYEVDGMQYVAIAGGGVSYGSGLNSALAGERVDSTAIGNAVYVFALPQ
modifications: Gluconobacter oxydans; SIGNAL (1)..(23)
Substrate specificity ([1]; 2 mM L-Sorbosone): 23.15 units/mg of purified protein
Substrate specificity ([1]; 50 mM D-Glucose): 2.4 units/mg of purified protein
Substrate specificity ([1]; 50 mM D-Mannitol): 7.1 units/mg of purified protein
Substrate specificity ([1]; 50 mM Isopropanol): 76.8 units/mg of purified protein
Substrate specificity ([1]; 50 mM n-Propanol): 139.6 units/mg of purified protein
Substrate specificity ([1]; 125 mM D-Fructose): 30.7 units/mg of purified protein
Substrate specificity ([1]; 125 mM D-Sorbitol): 14.0 units/mg of purified protein
Substrate specificity ([1]; 125 mM L-Sorbose): 47.4 units/mg of purified protein
Relative activity (optimal pH) ([2]; assay pH 6.0, pH 8.0 = 100): 6.5%
Relative activity (optimal pH) ([2]; assay pH 6.5, pH 8.0 = 100): 13.0%
Relative activity (optimal pH) ([2]; assay pH 7.0, pH 8.0 = 100): 33.1%
Relative activity (optimal pH) ([2]; assay pH 7.5, pH 8.0 = 100): 57.7%
Relative activity (optimal pH) ([2]; assay pH 8.0): 100.0%
Relative activity (optimal pH) ([2]; assay pH 8.5, pH 8.0 = 100): 113.2%
Relative activity (optimal pH) ([2]; assay pH 9.0, pH 8.0 = 100): 50.0%
Relative activity (optimal pH) ([2]; assay pH 9.5, pH 8.0 = 100): 19.6%
Relative activity (thermal stability) ([3]; 4° C. for 5 minutes (reference)): 100.0%
Relative activity (thermal stability) ([3]; 20° C. for 5 minutes, relative to 4° C. incubation): 91.5%
Relative activity (thermal stability) ([3]; 30° C. for 5 minutes, relative to 4° C. incubation): 78.0%
Residual activity ([3]; 40° C. for 5 min): 20%
Relative activity (thermal stability) ([3]; 40° C. for 5 minutes, relative to 4° C. incubation): 19.9%
Relative activity (thermal stability) ([3]; 50° C. for 5 minutes, relative to 4° C. incubation): 4.1%
Relative activity (thermal stability) ([3]; 60° C. for 5 minutes, relative to 4° C. incubation): 2.9%
Oxidation product of D-sorbitol [4]: mainly D-glucose
Oxidation product of L-sorbose [4]: *1Oxidation product of L-sorbose by Enzymes A, A′, A″, and [A and B] was 2KGA.
Oxidation product of L-sorbosone [4]: *4Oxidation product of L-sorbosone by Enzymes A, A′, A″, B, and [A and B] was 2KGA.
Product ([5]; substrate D-Mannitol): D-Mannose
Product ([5]; substrate D-Sorbitol): D-glucose with L-gulose
Product ([5]; substrate L-Sorbose): L-sorbosone with 2KGA
Product ([5]; substrate L-Sorbosone): 2KGA
